The text below walks through data of paper PMC1876262.

This test concerns the target Bovine brain tubulin (bovine) (UniProt Q6B856).
Sequence of UniProt Q6B856 (Q6B856 whole entry, looked up): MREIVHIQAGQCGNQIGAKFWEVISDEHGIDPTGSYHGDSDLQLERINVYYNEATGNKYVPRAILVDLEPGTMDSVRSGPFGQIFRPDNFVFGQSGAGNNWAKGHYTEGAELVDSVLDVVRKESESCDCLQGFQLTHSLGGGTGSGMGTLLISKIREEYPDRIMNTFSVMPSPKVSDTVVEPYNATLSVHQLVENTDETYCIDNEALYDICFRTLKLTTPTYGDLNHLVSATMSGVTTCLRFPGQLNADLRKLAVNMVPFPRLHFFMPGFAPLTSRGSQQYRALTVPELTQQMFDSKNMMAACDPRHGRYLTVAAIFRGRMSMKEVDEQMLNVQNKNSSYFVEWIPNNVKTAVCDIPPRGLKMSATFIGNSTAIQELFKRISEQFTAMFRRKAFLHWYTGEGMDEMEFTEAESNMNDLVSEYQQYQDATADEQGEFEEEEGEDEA

B1: wt human αB crystallin (natural protein)
chain: MDIAIHHPWIRRPFFPFHSPSRLFDQFFGEHLLESDLFPTSTSLSPFYLRPPSFLRAPSWFDTGLSEMRLEKDRFSVNLDVKHFSPEELKVKVLGDVIEVHGKHEERQDEHGFISREFHRKYRIPADVDPLTITSSLSSDGVLTVNGPRKQVSGPERTIPITREEKPAVTAAPKK
With B1, the decrease of thermal aggregation of tubulin: OD340 at 52°C for 60 min (Figure 4) was 65%.
